Assay [1] deals with T1, human FAP (human, UniProt Q12884 1-760).
T1 construct: also called hu FAP
Kind of assay: flow cytometry, NIH/3T3-huFAP clone 19 cells. The procedure:
(§1) Briefly, suspension cells were harvested, counted, checked for viability and re-suspended at 1 million cells per ml in FACS buffer (PBS with 0.1% BSA). […] The staining was fixed for 20 min at 4° C. in the dark, using 75 μl of 1% PFA in FACS buffer per well.
(§2) Fluorescence was analyzed by FACS using a FACS Fortessa (Software FACS Diva). Binding curves and EC₅₀ values were obtained using GraphPadPrism 7.

The target of assay [2] is T2, human ICOS (human, UniProt Q9Y6W8 21-199).
T2 construct: The cell that carries it is named under assay; also called huICOS; CD278
T2 sequence: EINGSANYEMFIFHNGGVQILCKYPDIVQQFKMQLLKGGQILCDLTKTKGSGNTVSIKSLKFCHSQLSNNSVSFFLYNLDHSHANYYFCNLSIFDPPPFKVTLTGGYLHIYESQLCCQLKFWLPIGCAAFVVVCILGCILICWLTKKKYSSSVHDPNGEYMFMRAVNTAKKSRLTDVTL
Kind of assay: flow cytometry, CHO cells expressing human ICOS. The procedure: as §1, §2
A general note: In flow cytometry, cells or beads pass a laser one at a time.

Assay [3] has as its target T3, cynomolgus ICOS (cynomolgus, UniProt Q9Y6W8 21-195 (human entry)).
T3 chain: T2 sequence with T54K, H81R, A129T, L136F, S152T, D176G, V177T, L179P
In words: flow cytometry, activated cynomolgus PBMCs, CD4+ subset. The procedure:
as §1
(§3) Briefly, cynomolgus PBMCs were activated for 48 hours using Dynabeads™ Human T-Activator CD3/CD28 (Thermo Fischer #11131D) according to manufacturer instruction and stored in RPMI1640 medium containing 10% FCS and 1% Glutamax (Gibco 35050061) at 37° C., in a humidified incubator until subsequent binding experiment was performed, as described above.

In assay [4] the target is T3, cynomolgus ICOS. Kind of assay: flow cytometry, activated cynomolgus PBMCs, CD8+ subset. The procedure:
as §1, §3

Assay [5] has as its target T2, human ICOS. Kind of assay: cell-based or functional assay.
Assay [6] addresses T2, human ICOS. Kind of assay: flow cytometry, CHO cells expressing human ICOS. The source holds these as a separate data set.
Assay [7] concerns the target T2, human ICOS. In words: flow cytometry on CHO cells expressing human ICOS, PE-labelled secondary antibody; y axis printed LOG10(MFI PE).
Assay [8] has as its target T2, human ICOS. In words: flow cytometry, SR cells.
Assay [9] deals with T1, human FAP. In words: flow cytometry, NIH/3T3-huFAP clone 19 cells. The source holds these as a separate data set.
Assay [10] deals with T2, human ICOS. Kind of assay: flow cytometry on SR cells expressing human ICOS, geometric MFI.

What is called EC50 is the concentration at which the effect is half-maximal. Higher therefore signals a less potent agent. One may read the EC50 (read off the curve) as the concentration giving half of the maximal effect. The low end stands for higher potency in that assay, the high end for lower potency in that assay.

Changes are numbered by the printed parent chain. Read-outs that look alike come from different tables or passages of the source.

B1: Molecule 19, bispecific 2+1 anti-ICOS (1138)/anti-FAP (4B9) huIgG1 P329GLALA kih (bispecific antibody)
heavy 1: QSLEESGGDLVKPGASLTLTCTASGFDLSSYYYMSWVRQAPGKGLEWIASIYADIYGGTTHYASWAKGRFTISKTSSTTVTLQMTSLTAADTATYFCAREDGSRYGGSGYYNLWGPGTLVTVSSASTKGPSVFPLAPSSKSTSGGTAALGCLVKDYFPEPVTVSWNSGALTSGVHTFPAVLQSSGLYSLSSVVTVPSSSLGTQTYICNVNHKPSNTKVDKKVEPKSCDKTHTCPPCPAPEAAGGPSVFLFPPKPKDTLMISRTPEVTCVVVDVSHEDPEVKFNWYVDGVEVHNAKTKPREEQYNSTYRVVSVLTVLHQDWLNGKEYKCKVSNKALGAPIEKTISKAKGQPREPQVCTLPPSRDELTKNQVSLSCAVKGFYPSDIAVEWESNGQPENNYKTTPPVLDSDGSFFLVSKLTVDKSRWQQGNVFSCSVMHEALHNHYTQKSLSLSPGGGGGSGGGGSGGGGSGGGGSEIVLTQSPGTLSLSPGERATLSCRASQSVTSSYLAWYQQKPGQAPRLLINVGSRRATGIPDRFSGSGSGTDFTLTISRLEPEDFAVYYCQQGIMLPPTFGQGTKVEIK
heavy 2: not shown
light: ALVMTQTPSSVSAAVGGTVTINCQASQNIYSNLAWYQQKPGQPPKLLIYAASYLTSGVSSRFKGSGAGTQFTLTISGVESADAATYYCQQGHTTDNIDNAFGGGTEVVVKRTVAAPSVFIFPPSDEQLKSGTASVVCLLNNFYPREAKVQWKVDNALQSGNSQESVTEQDSKDSTYSLSSTLTLSKADYEKHKVYACEVTHQGLSSPVTKSFNRGEC
Consider B1, for which the EC50 stood at 6.16 nM with human FAP [1], 5.44 nM with human ICOS [2], 13.5 nM with cynomolgus ICOS [3] and 14 nM with cynomolgus ICOS [4].

B2: Molecule 33 (ICOS H1138_1) (antibody, human IgG1, kappa, L234A L235A, V domains shown)
VH: EVQLLESGGGLVQPGGSLRLSCAASGFDLSSYYYMSWVRQAPGKGLEWVSSIYADIYGGTTHYASWAKGRFTISKTSSKTTLYLQMNSLRAEDTAVYFCAREDGSRYGGSGYYNLWGQGTLVTVSS
VL: DIQMTQSPSSLSASVGDRVTITCRASQNIYSNLAWYQQKPGQPPKLLIYAASYLTSGVPSRFSGSGSGTDFTLTISSLQPEDFATYYCQQGHTTDNIDNAFGGGTKVEIKR
notes: Human IgG format
B2: in the assay with human ICOS [5], the “EC50 of activation of Jurkat-NFAT reporter cell line” value was determined as 41.4 nM and the “Max (Counts/sec), Jurkat-NFAT reporter cell line” value (“Max (Counts/sec)” below) stood at 41400 Counts/sec. Also, in the assay with human ICOS [6], the midpoint of the response, the EC50, lay at 7.58 nM and the “Max (Log10(MFI))” value was 3.89 Log10(MFI). Besides, the “EC50 (read off the curve)” value in the assay with human ICOS [7] is about 8 nM.

B3: Molecule 35 (ICOS H1138_3) (antibody, human IgG1, kappa, L234A L235A, V domains shown)
VH: EVQLLESGGGLVQPGGSLRLSCAASGFDLSSYYYMSWVRQAPGKGLEWVSSIYADIYGGTTHYASWAKGRFTISKTSSTTLYLQMNSLRAEDTAVYFCAREDGSRYGGSGYYNLWGQGTLVTVSS
VL: B2 VL with D1A, Q42K, P59S
notes: Human IgG format
On to B3, for which, in the assay with human ICOS [5], the “EC50 of activation of Jurkat-NFAT reporter cell line” value is 99.4 nM and the “Max (Counts/sec)” value was 59500 Counts/sec. In the assay with human ICOS [6], the EC50 worked out at 2.72 nM and the “Max (Log10(MFI))” value is 4.55 Log10(MFI). Moreover, in the assay with human ICOS [7], the half-maximal effective concentration (EC50 (read off the curve)) was about 3 nM.

B4: Molecule 34 (ICOS H1138_2) (antibody, human IgG1, kappa, L234A L235A, V domains shown)
VH: B2 VH with K75R, T76D, S77N, T80N
VL: B2 VL with D1A, Q42K, P59S
notes: Human IgG format
For the molecule B4, in the assay with human ICOS [5], the “EC50 of activation of Jurkat-NFAT reporter cell line” value stood at 34 nM and the “Max (Counts/sec)” value was 38400 Counts/sec. Further, in the assay with human ICOS [6], a half-maximal effect (EC50) was put at 10.2 nM and the “Max (Log10(MFI))” value was 1.91 Log10(MFI). In addition, the “EC50 (read off the curve)” value in the assay with human ICOS [7] is about 10 nM.

B5: Molecule 22, bispecific 2+1 anti-ICOS (1143v2)/anti-FAP (4B9) huIgG1 P329GLALA kih (bispecific antibody)
heavy 1: QSLEESGGDLVKPGASLTLTCKASGFDFSSAYDMSWVRQAPGKGLEWIGVIYYGDGITYYATSVKGRFTISKTSSTTVPLQMTSLTAADTATYFCARGAFLGSSYYLSLWGQGTLVTVSSASTKGPSVFPLAPSSKSTSGGTAALGCLVKDYFPEPVTVSWNSGALTSGVHTFPAVLQSSGLYSLSSVVTVPSSSLGTQTYICNVNHKPSNTKVDKKVEPKSCDKTHTCPPCPAPEAAGGPSVFLFPPKPKDTLMISRTPEVTCVVVDVSHEDPEVKFNWYVDGVEVHNAKTKPREEQYNSTYRVVSVLTVLHQDWLNGKEYKCKVSNKALGAPIEKTISKAKGQPREPQVCTLPPSRDELTKNQVSLSCAVKGFYPSDIAVEWESNGQPENNYKTTPPVLDSDGSFFLVSKLTVDKSRWQQGNVFSCSVMHEALHNHYTQKSLSLSPGGGGGSGGGGSGGGGSGGGGSEIVLTQSPGTLSLSPGERATLSCRASQSVTSSYLAWYQQKPGQAPRLLINVGSRRATGIPDRFSGSGSGTDFTLTISRLEPEDFAVYYCQQGIMLPPTFGQGTKVEIK
heavy 2: not shown
light: AIDMTQTPASVEAAVGGTVTINCQASENIYNWLAWYQQKPGQPPKLLIYDASKLASGVPSRFSASGSGTQFTLTISAVESADAATYYCQQAYTYGNIDNAFGGGTEVVVSRTVAAPSVFIFPPSDEQLKSGTASVVCLLNNFYPREAKVQWKVDNALQSGNSQESVTEQDSKDSTYSLSSTLTLSKADYEKHKVYACEVTHQGLSSPVTKSFNRGEC
For the molecule B5, the half-maximal effective concentration (EC50) came to 0.00117 nM with human ICOS [8]; 4.68 nM with human FAP [1]; 0.00324 nM with human FAP [9]; 2.19 nM with human ICOS [2]; 6.53 nM in the assay with cynomolgus ICOS [3]; 8.34 nM with cynomolgus ICOS [4]. Moreover, the “EC50 (read off the curve)” value in the assay with human ICOS [10] is about 1 nM.
